Measured values taken from paper PMC6628311, “An Emerin LEM-Domain Mutation Impairs Cell Response to Mechanical Stress” (Cells, 2019).

Legend:
[1] = biological target: human barrier-to-autointegration factor (BAF) with all cysteines mutated into alanine (human) (UniProt O75531); assay: crystal structure; ternary complex EmN T43I/BAF/lamin A/C Ig-fold at 5 mg/mL, a week at 4 °C (proteolysis to the LEM-domain); hanging drop at 4 °C, 18% PEG 3350, 100 mM Tris Bis pH 5.5, 0.1 M NH4SO4; molecular replacement; 2.3 Å
[2] = biological target: the molecule itself; assay: thioflavin T fluorescence (self-assembly kinetics); protein at 300 uM heated at 37 °C in 20 mM Tris HCl pH 8, 30 mM NaCl, 5 mM DTT; aliquots at 20 uM protein with 2.5 uM ThT read at 20 °C over 24 h

human barrier-to-autointegration factor (BAF) with all cysteines mutated into alanine (from UniProt O75531 1-89) (natural protein)
stoichiometry N [1]: 2

B1: human emerin fragment EmN (region 1-187), mutant ΔK37 (domain or fragment, UniProt P50402 1-187, looked up)
chain: MDNYADLSDTELTTLLRRYNIPHGPVVGSTRRLYEKIFEYETQRRRLSPPSSSAASSYSFSDLNSTRGDADMYDLPKKEDALLYQSKGYNDDYYEESYFTTRTYGEPESAGPSRAVRQSVTSFPDADAFHHQVHDDDLLSSSEEECKDRERPMYGRDSAYQSITHYRPVSASRSSLDLSYYPTSSS
notes: emerin, human, fragment EmN, residues 1-187, with the patient deletion ΔK37 (atrial cardiac defects); Made by site-directed mutagenesis from the EmN expression vector; also called EmN ΔK37; emerin ΔK37; not shown: His8, N-terminal, cleaved
binding result [2]: binds

B2: human emerin fragment EmN (region 1-187), wild-type (domain or fragment, UniProt P50402 1-187, looked up)
chain: MDNYADLSDTELTTLLRRYNIPHGPVVGSTRRLYEKKIFEYETQRRRLSPPSSSAASSYSFSDLNSTRGDADMYDLPKKEDALLYQSKGYNDDYYEESYFTTRTYGEPESAGPSRAVRQSVTSFPDADAFHHQVHDDDLLSSSEEECKDRERPMYGRDSAYQSITHYRPVSASRSSLDLSYYPTSSS
notes: emerin, human, fragment EmN, residues 1-187 of the 254-residue protein (LEM-domain aa 1-45 and part of the disordered region); pETM-13 vector; also called wild-type EmN; EmN wild-type; not shown: His8, N-terminal, cleaved
binding result [2]: binds

B3: human emerin fragment EmN (region 1-187), mutant T43I (domain or fragment, UniProt P50402 1-187, looked up)
chain: MDNYADLSDTELTTLLRRYNIPHGPVVGSTRRLYEKKIFEYEIQRRRLSPPSSSAASSYSFSDLNSTRGDADMYDLPKKEDALLYQSKGYNDDYYEESYFTTRTYGEPESAGPSRAVRQSVTSFPDADAFHHQVHDDDLLSSSEEECKDRERPMYGRDSAYQSITHYRPVSASRSSLDLSYYPTSSS
notes: emerin, human, fragment EmN, residues 1-187, with the patient mutation T43I (atrial cardiac defects); Made by site-directed mutagenesis from the EmN expression vector; also called EmN T43I; not shown: His8, N-terminal, cleaved
binding result [2]: binds

B4: human emerin fragment EmN (region 1-187), mutant P22L (domain or fragment, UniProt P50402 1-187, looked up)
chain: MDNYADLSDTELTTLLRRYNILHGPVVGSTRRLYEKKIFEYETQRRRLSPPSSSAASSYSFSDLNSTRGDADMYDLPKKEDALLYQSKGYNDDYYEESYFTTRTYGEPESAGPSRAVRQSVTSFPDADAFHHQVHDDDLLSSSEEECKDRERPMYGRDSAYQSITHYRPVSASRSSLDLSYYPTSSS
notes: emerin, human, fragment EmN, residues 1-187, with the patient mutation P22L (atrial cardiac defects); Made by site-directed mutagenesis from the EmN expression vector; also called EmN P22L; not shown: His8, N-terminal, cleaved
binding result [2]: binds
